Measured values published in the supplement of paper PMC10126150.
± gives the standard deviation of the averaged measurements.

test system: ATP; assay: switch fluorescence ratio, 500 uM ATP over buffer (Cy3 cluster intensity, sum of 5 cycles each) (fold (ratio)); higher = stronger signal-on switching upon ATP binding; sequences stand for … in TCGTCGGCAGCGTCAGATGTGTATAAGAGACAGTTTTTTTTTTTTTTTTTTTTTTTTT…TC; settings: aptamer strand: ATP DNA aptamer (quencher-CACCTGGGGGAGTATTGCGGAGGAAGG + anchor), 100 nM annealed; ATP concentration: 500 uM
Outline: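 After annealing to 100 nM quencher-labelled ATP aptamer, Cy3-labelled switching-strand clusters on a modified Illumina MiSeq flow-cell were imaged in selection buffer. A second image followed after 15 min with 500 uM ATP at 22 °C, and five such buffer/ATP cycles were done, each separated by NaOH stripping and re-annealing. The fluorescence ratio, averaged per switch-domain sequence, is summed target-cycle over summed buffer-cycle Cy3 intensity per cluster, with clusters outside 100-1000 RFU excluded.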
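Also: ATP exposure 15 min at 22 °C before imaging.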

Row | Sequence | switch fluorescence ratio
1 | CAGTCGGTTT | 1.013 ± 0.0088
2 | AATGGCACAG | 1.01 ± 0.015
3 | GCGGGCCTGG | 1.01 ± 0.037
4 | GATGTAAACG | 1.02 ± 0.026
5 | TAATGACCAA | 1.019 ± 0.0071
6 | AAACCAGCCC | 1.21 ± 0.21
7 | GAAAGGGATT | 1 ± 0.048
8 | TTTTACACAT | 1.025 ± 0.0057
9 | TGGTATGTCA | 0.9913 ± 0.0059
10 | ATGCTAACGT | 0.9818 ± 0.0032
11 | CGTAGCTTTG | 1.086 ± 0.0028
12 | TTTATCAATT | 0.991 ± 0.063
13 | GATGATTTGG | 1.02 ± 0.021
14 | TCGTGGTGGT | 0.974 ± 0.018
15 | AGCAAACTTG | 1.04 ± 0.049
16 | GGCGGCAGGG | 1 ± 0.013
17 | GCCTTGATAG | 0.981 ± 0.0086
18 | CGAGTTTTTA | 0.994 ± 0.027
19 | TTTTGTGGGC | 1.01 ± 0.055
20 | CATGTGCGTG | 1 ± 0.022
21 | AGGCCCTGTT | 0.989 ± 0.028
22 | CATCGCTGTG | 0.998 ± 0.039

Row | Sequence | switch fluorescence ratio
23 | ATTAGTAGAA | 0.995 ± 0.016
24 | TTTTTCGGTT | 0.998 ± 0.039
25 | CCGTGGGTGT | 1.26 ± 0.15
26 | GCACTTTTCG | 1.01 ± 0.025
27 | CAGGGGCGTG | 0.9921 ± 0.0079
28 | TACATACTCT | 1.29 ± 0.023
29 | GGATGAATTG | 1.01 ± 0.018
30 | GGCCTATGTC | 1.04 ± 0.011
31 | CGATTTTTTT | 1.02 ± 0.05
32 | GCTTAAAGAC | 1.1 ± 0.013
33 | GCGTTATCTT | 0.99586 ± 0.00081
34 | TTTTTAGGCG | 0.978 ± 0.028
35 | AAACGAAGGA | 1.09 ± 0.069
36 | CGTTGCCGTT | 1.06 ± 0.1
37 | GCCGTGTAGA | 1.05 ± 0.021
38 | TGGTGTAAGT | 1.007 ± 0.0052
39 | CTAACTGGTG | 1.2 ± 0.055
40 | GGGGGATGGC | 0.975 ± 0.064
41 | TATCTGGGTT | 1.06 ± 0.079
42 | AATTAGCTGT | 0.9743 ± 0.0085
43 | ATATGGATGT | 0.997 ± 0.029
44 | GGGTAAGAAA | 0.9865 ± 0.0041

Row | Sequence | switch fluorescence ratio
45 | TAATAATTGG | 1.04 ± 0.057
46 | TGCTCCTTAG | 1.07 ± 0.03
47 | CTTTTGGGAC | 0.987 ± 0.025
48 | TTTCATAGC | 1.1 ± 0.065
49 | ATGATATGTT | 0.992 ± 0.034
50 | AGGAAAAATA | 0.988 ± 0.053
51 | GGGTGGTAAG | 0.997 ± 0.051
52 | TCTAAGGATT | 1.02 ± 0.022
53 | GCTACACGAA | 1.04 ± 0.027
54 | TGTTAATCTG | 0.994 ± 0.021
55 | GAGGGGTTAC | 1.01 ± 0.05
56 | TGCATGGATC | 1.02 ± 0.012
57 | CTAAATTGCC | 0.9991 ± 0.0056
58 | GTGGGGTCGG | 0.979 ± 0.0057
59 | GGGTGATGGC | 1.01 ± 0.013
60 | GTTGGGGGAG | 0.978 ± 0.02
61 | GACGGTAACT | 1.14 ± 0.059
62 | ATCGTGGGGG | 1 ± 0.028
63 | AAATTTATTA | 1.03 ± 0.037
64 | CGTGTAGGTT | 1.02 ± 0.021
65 | GCGGCTGATG | 1.02 ± 0.012
66 | ATACGGGGTT | 1.008 ± 0.0032

Row | Sequence | switch fluorescence ratio
67 | TTTTCTTAGA | 0.977 ± 0.029
68 | TATATTTTTC | 1.15 ± 0.24
69 | GCTTTTCTTG | 1.01 ± 0.011
70 | CATTCGGGTG | 1.11 ± 0.027
71 | AGCCGGCTGC | 1.03 ± 0.024
72 | GAGTTAAAGT | 1.01 ± 0.014
73 | TTTTTATAAA | 1.01 ± 0.039
74 | CAATGGGGAA | 1 ± 0.014
75 | AAAAGGTTTG | 1.022 ± 0.0081
76 | TTAAAGAGAA | 1 ± 0.013
77 | GGGCTATAGC | 0.997 ± 0.056
78 | TGGGGAATTG | 0.969 ± 0.053
79 | AATGACAGGG | 0.988 ± 0.02
80 | AACGTAGGGA | 1.93 ± 1.2
81 | AGTAACCGGC | 0.967 ± 0.12
82 | TTTTTGTGTG | 0.993 ± 0.023
83 | ATGGCCGGTT | 1.04 ± 0.013
84 | TTTTCTTTT | 1.02 ± 0.024
85 | CGGGTTCCAC | 1.01 ± 0.05
